In publication PMC4844702, “Selective inhibition of the kinase DYRK1A by targeting its folding process” (Nature Communications, 2016):

Legend:
Assay in all cases: co-IP; CDC37-nanoKAZ interaction assay: cleared lysates (HENG buffer, 50 mM HEPES-KOH pH 7.9, 150 mM NaCl, 20 mM Na2MoO4, 0.5% Triton X-100) of 293T cells added to 96-well plates coated with anti-FLAG M2, 4 °C for 3 h; luminescence of the captured CDC37-nanoKAZ normalized to the amount of captured 3xFLAG-DYRK1A; in some experiments cells were treated with FINDY or RD0392 for 24 h before lysis
Conditions in all cases: partners not purified
[1] = target: T1, 3xFLAG-DYRK1A Y321F (human, UniProt Q13627 1-763, Y321F)
T1 construct: DYRK1A, the variant in which Ser529 corresponds to Ser520 of the other variant; As m2 with the substitution; also called Y321F mutant; source: 293T cells, transiently transfected, in lysate

[2] = target: T2, 3xFLAG-DYRK1A K188R (human, UniProt Q13627 1-763, K188R)
T2 construct: DYRK1A, the variant in which Ser529 corresponds to Ser520 of the other variant; As m2 with the substitution; also called K188R mutant; kinase-dead mutant; source: 293T cells, transiently transfected, in lysate

[3] = target: T3, 3xFLAG-DYRK1A S97A (human, UniProt Q13627 1-763, S97A)
T3 construct: DYRK1A, the variant in which Ser529 corresponds to Ser520 of the other variant; As m2 with the substitution; also called S97A mutant; source: 293T cells, transiently transfected, in lysate

[4] = target: T4, 3xFLAG-DYRK1A Y319F/Y321F (human, UniProt Q13627 1-763, Y319F | Y321F)
T4 construct: DYRK1A, the variant in which Ser529 corresponds to Ser520 of the other variant; As m2 with the two substitutions; also called Y319F/Y321F mutant; Y321F/Y319F; source: 293T cells, transiently transfected, in lysate

fold change of luminescence relative to intact DYRK1A [1]: 5.2 fold | fold change of luminescence relative to intact DYRK1A [2]: 54 fold | fold change of luminescence relative to intact DYRK1A [3]: 2.2 fold | fold change of luminescence relative to intact DYRK1A [4]: 6.2 fold
B1: CDC37 fused with luciferase nanoKAZ (natural protein, UniProt Q16543 1-378, looked up)
chain: MVDYSVWDHIEVSDDEDETHPNIDTASLFRWRHQARVERMEQFQKEKEELDRGCRECKRKVAECQRKLKELEVAEGGKAELERLQAEAQQLRKEERSWEQKLEEMRKKEKSMPWNVDTLSKDGFSKSMVNTKPEKTEEDSEEVREQKHKTFVEKYEKQIKHFGMLRRWDDSQKYLSDNVHLVCEETANYLVIWCIDLEVEEKCALMEQVAHQTIVMQFILELAKSLKVDPRACFRQFFTKIKTADRQYMEGFNDELEAFKERVRGRAKLRIEKAMKEYEEEERKKRLGPGGLDPVEVYESLPEELQKCFDVKDVQMLQDAISKMDPTDAKYHMQRCIDSGLWVPNSKASEAKEGEEAGPGDPLLEAVPKTGDEKDVSV
notes: kinase-specific co-chaperone CDC37; also called CDC37-nanoKAZ; source: 293T cells stably expressing CDC37-nanoKAZ, in lysate
